Target: F-actin of thin filaments in ghost fibers from rabbit psoas muscle (rabbit (endogenous in psoas muscle fibers)) (UniProt P68135)
Assay: polarized microfluorimetry of ghost muscle fibers; 5-IAF-labelled Tpm incorporated into ghost fibers (2 mg/mL, 2-3 h); sum of the four polarized fluorescence intensities of Tpm-AF, in the presence of S1

Sequence of recombinant control (wild-type) human tropomyosin Tpm2.2 (natural protein) (P07951 whole entry): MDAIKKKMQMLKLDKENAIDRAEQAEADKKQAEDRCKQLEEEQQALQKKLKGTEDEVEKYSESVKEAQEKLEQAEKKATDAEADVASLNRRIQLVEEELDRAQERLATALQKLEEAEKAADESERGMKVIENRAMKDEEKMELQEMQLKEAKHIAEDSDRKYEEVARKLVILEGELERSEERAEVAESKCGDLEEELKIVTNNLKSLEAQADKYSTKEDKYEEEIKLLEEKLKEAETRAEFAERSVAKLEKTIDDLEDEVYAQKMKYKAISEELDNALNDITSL

| sum of fluorescence intensities for Tpm-AF (Isum) in ghost fibers | Substance |
| --- | --- |
| 1030 | recombinant control (wild-type) human tropomyosin Tpm2.2 (natural protein) |
| 978 | recombinant mutant human tropomyosin Tpm2.2 with the Gln147Pro substitution (natural protein) |
